Assay results published in patent publication US20260265386A1 (Chugai, published 2026).

B1: PDC0037 (antibody, human IgG1, kappa, V domains shown)
VH: QSVEESGGRLVTPGTPLTLTCTVSGFSLSYYAMIWVRQAPGKGLEWIGFINSYGKTYYANWAKGRFTISKTSTTVDLKMTSLTSEDTATYFCARERDNYHFNLWGQGTLVTVSS
VL: AQVLTQTPSPVSAAVGGTVTISCQSSESVYNNNWLAWYQQKPGQPPKFLIYDASTLASGVPSRFSGSGSGTQFTLTISGVQADDAATYYCQGTYYSSDWYFVFGGGTEVVVKR
B2: PDE0171 (antibody, human IgG1, kappa, V domains shown)
VH: QSLEESGGGLVKPGASLTLTCTASGFSFSGSYYMCWVRQAPGKGLECIACIYAGSSGATYYASWAKGRFTVSKTSSTTVTLQMTSLTAADTATYFCARHTNGIGLGLWGPGTLVTVSS
VL: DIVMTQTPASVSAAVGGTVSINCQASEDIENFLAWYQQKPGQPPSLLIYETSKLASGVPSRFSGSGSGTEFTLTISDLEAADAATYYCQSYDWSDSSTYDNTFGGGTEVVVKR
B3: GY14 (antibody, human IgG1, kappa, V domains shown)
VH: QVQLQQSGAELVRPGASVKLSCKALGDTFTDYEIHWVKQTPVHGLEWIGVIHPGSGGTVYNQKFKGKATLTADKYSSTAYMELSSLTSEDSAVYYCTREGMNTDWYFDVWGAGTTVTVSS
VL: DILMTQDELSLPVSLGDQASISCRSSQTIVHTNGNTYLEWYLQKPGQSPKLLIYKVSNRFSGVPDRFSGSGSGTYFTLKISRLEAEDLGVYYCFQGSHVPYTFGGGTKLEMKR
B4: PDA0129 (antibody, human IgG1, kappa, V domains shown)
VH: QSVEESGGRLVTPGTPLTLTCTVSGFSLSSYDMSWVRQAPGKGLEYIGIISSSGSTYYASWAKGRFTISKTSTTVDLKITSPTTEDTATYFCARLGYVGYGYADIWGPGTLVTVSS
VL: IEMTQTPFSVSAAVGGTVTIKCQASEDIYSLLAWYQQKPGQPPKLLIYSASTLASGVPSRFKGSGYGTEFTLTISGVQAADAATYYCQGGYYSSSADNTFGGGTEVVVKR
B5: PDA0138 (antibody, human IgG1, kappa, V domains shown)
VH: QSVEESGGRLVTPGTPLTLTCTVSGFSLSSYHMCWVRQPPGKGLEYIGIISGGAITYYATWAKGRFTISITSSTTVDLKITSPTTEDTATYFCARGGGYGGGDYNFDLWGQGTLVTVSS
VL: AAVLTQTPSPVSAAVGATVSISCQSSQSVYGNSELAWYQQKPGQRPKLLIFEASKLASGVPSRFSGSGSGTQFSLAISDVQADDAATYYCAGGYSSTSDTTFGGGTEVVVKR
B6: PDC0053 (antibody, human IgG1, kappa, V domains shown)
VH: QQHLVESGGGLVKPGASLTLTCKASGFYFSGYYYMSWVRQAPGKGLEWIASIYSGGSGNTYYASWAKGRFTISKTSSTTVTLQMTSLTAADTATYFCARGADYTHDYPADAAAWSFDPWGPGTLVTVSS
VL: DIVMTQTPASVEAAVGGIVTIKCQASQSISSYLAWYQQKPGQPPNLLIYRASTLASGVPSRFKGSGSGTQFTLTISDLEAADAATYYCQGYHFSSTSSNYGNAFGGGTEVVVKR
B7: PDA0107 (antibody, human IgG1, kappa, V domains shown)
VH: QSVEESGGRLVTPGTPLTLTCTVSGFSLSRYYMSWVRQAPGKGLEWIGYIYADSGSTWYASWAKGRFTISKTSTTVDLKMTSLTTEDTATYFCARRADHDGAFDLWGPGTLVTVSS
VL: AAVLTQTPSPVSAAVGGTVSISCQSSQSVYGKNELSWYQQKPGQPPKLLIYYASTLASGVPSRFSGSGSGTQFALTISGVQADDAATYYCAGGYSSSVDTTFGGGTEVVVKR
B8: GY5 (antibody, human IgG1, kappa, V domains shown)
VH: QVQLQQSGPELVRPGVSVKISCKGSGHTFTDYALHWVRQSHVKSLEWIGVISSYNGITNYNQRFKGKATMTVDKSSSTAYLELARLTSEDSAIYYCSREEWDVFYYFDYWGQGTTLTVSS
VL: DIMLTQSPLSLPVSLGDQASISCRSSQGIVHSDGNTYLEWYLQKPGQSPKLLIYKVSNRFSGVPDRFSGSGSGTDFILKISRVEAEDLGVYYCFQGSHVPYTFGGGTKLEIKR
B9: PDA0044 (antibody, human IgG1, kappa, V domains shown)
VH: QSVEESGGRLVTPGTPLTLTCTASGFSLSGYYMSWVRQAPGKGLEWIGSISYGGSTYYASWAKGRFTISKTSTTVDLKITSPTTEDTATYFCAAGYTTNTAFDPWGPGTLVTVSS
VL: AFELTQTPSSVEAAVGGTVTIKCQASQSISSYLAWYQQKPGQPPKLLIYGASNLKSGVPSRFKGSGSGTQFTLTISDLEAADAATYYCQSYYYSSSSSYSFGGGTEVVVKR

Each binder was assayed against T1, human PD1 on NFAT-luc2/PD1 Jurkat Cell line (Promega, #CS187102) (human, UniProt Q15116 25-288) (assay: flow cytometry on NFAT-luc2/PD1 Jurkat cells, Ab 10 micro g/mL, detected with Goat F(ab')2 anti-Human IgG-PE).
T1 construct: whole, on cells; also called PD1+Jurkat cells; human PD1-expressing cell line
T1 sequence (Q15116 25-288): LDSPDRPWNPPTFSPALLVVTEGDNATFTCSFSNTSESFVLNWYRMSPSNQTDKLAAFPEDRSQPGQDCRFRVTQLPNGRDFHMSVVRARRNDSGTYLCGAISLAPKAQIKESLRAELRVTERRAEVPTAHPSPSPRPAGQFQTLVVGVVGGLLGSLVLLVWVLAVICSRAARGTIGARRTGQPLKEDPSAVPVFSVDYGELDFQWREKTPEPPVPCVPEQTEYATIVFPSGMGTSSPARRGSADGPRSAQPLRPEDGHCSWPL
Description: Unbound Abs were removed by washing twice with staining buffer.

Binder	binding result
B1	binds
B2	binds
B3	binds
B4	binds
B5	binds
B6	binds
B7	binds
B8	binds
B9	binds
